# T1: human C2 S469A (human, UniProt P06681 21-752)
# T1 sequence: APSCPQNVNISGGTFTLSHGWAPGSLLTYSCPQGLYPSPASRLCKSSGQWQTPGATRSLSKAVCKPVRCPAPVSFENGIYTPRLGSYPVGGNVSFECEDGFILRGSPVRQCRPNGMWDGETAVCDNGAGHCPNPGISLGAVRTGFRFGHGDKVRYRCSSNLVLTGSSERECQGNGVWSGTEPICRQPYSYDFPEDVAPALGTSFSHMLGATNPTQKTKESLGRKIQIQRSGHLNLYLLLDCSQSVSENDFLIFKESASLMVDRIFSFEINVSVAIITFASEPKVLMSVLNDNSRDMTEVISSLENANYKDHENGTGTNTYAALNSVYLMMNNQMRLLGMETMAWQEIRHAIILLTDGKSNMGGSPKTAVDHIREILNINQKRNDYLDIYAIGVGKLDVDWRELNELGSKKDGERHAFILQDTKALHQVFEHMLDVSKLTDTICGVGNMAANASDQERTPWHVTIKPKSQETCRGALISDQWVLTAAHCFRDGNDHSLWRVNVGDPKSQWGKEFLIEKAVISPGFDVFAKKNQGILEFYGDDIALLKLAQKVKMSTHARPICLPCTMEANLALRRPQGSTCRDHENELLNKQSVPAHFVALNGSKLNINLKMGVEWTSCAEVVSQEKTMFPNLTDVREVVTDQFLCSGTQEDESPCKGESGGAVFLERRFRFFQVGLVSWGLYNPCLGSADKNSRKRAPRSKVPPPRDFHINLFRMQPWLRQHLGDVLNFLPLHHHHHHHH
# T2: human C2 N403A (human, UniProt P06681 21-752)
# T2 sequence: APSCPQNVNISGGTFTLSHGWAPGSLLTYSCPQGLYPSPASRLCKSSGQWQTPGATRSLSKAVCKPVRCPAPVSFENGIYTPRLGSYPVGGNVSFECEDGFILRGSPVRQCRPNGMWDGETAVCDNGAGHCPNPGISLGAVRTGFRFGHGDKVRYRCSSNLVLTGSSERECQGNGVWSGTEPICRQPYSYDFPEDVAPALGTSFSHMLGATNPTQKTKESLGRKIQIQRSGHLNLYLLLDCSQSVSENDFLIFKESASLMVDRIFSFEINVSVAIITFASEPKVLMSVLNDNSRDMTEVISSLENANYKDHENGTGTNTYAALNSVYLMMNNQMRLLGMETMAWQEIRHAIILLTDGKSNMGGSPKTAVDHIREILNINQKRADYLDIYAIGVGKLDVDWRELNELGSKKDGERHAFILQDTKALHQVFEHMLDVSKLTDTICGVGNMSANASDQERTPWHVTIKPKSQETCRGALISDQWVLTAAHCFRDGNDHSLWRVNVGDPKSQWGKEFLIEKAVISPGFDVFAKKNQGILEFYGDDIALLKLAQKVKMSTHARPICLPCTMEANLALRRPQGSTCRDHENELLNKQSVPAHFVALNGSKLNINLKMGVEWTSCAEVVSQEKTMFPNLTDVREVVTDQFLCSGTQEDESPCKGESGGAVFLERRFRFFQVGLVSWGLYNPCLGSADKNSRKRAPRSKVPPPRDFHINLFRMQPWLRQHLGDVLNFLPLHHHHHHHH
# T3: human C2 A444S (human, UniProt P06681 21-752)
# T3 sequence: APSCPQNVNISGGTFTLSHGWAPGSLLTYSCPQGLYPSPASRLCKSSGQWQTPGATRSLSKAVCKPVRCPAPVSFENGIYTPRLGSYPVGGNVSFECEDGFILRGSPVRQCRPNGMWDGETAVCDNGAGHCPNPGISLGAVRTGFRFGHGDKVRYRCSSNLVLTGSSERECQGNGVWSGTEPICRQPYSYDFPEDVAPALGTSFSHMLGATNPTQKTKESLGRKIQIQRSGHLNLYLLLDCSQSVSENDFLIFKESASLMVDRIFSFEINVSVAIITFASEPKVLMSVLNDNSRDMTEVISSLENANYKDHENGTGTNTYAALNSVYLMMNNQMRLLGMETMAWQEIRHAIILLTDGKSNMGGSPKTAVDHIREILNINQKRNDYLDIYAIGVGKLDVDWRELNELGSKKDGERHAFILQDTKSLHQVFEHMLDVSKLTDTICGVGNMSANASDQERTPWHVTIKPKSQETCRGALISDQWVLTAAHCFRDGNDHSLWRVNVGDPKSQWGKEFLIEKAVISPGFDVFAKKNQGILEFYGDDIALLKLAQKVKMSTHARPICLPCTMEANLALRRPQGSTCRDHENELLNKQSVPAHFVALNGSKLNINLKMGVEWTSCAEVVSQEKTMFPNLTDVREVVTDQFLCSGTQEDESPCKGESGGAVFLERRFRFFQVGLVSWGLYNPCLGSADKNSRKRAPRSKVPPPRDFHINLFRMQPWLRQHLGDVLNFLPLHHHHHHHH
# T4: human C2 N467A (human, UniProt P06681 21-752)
# T4 sequence: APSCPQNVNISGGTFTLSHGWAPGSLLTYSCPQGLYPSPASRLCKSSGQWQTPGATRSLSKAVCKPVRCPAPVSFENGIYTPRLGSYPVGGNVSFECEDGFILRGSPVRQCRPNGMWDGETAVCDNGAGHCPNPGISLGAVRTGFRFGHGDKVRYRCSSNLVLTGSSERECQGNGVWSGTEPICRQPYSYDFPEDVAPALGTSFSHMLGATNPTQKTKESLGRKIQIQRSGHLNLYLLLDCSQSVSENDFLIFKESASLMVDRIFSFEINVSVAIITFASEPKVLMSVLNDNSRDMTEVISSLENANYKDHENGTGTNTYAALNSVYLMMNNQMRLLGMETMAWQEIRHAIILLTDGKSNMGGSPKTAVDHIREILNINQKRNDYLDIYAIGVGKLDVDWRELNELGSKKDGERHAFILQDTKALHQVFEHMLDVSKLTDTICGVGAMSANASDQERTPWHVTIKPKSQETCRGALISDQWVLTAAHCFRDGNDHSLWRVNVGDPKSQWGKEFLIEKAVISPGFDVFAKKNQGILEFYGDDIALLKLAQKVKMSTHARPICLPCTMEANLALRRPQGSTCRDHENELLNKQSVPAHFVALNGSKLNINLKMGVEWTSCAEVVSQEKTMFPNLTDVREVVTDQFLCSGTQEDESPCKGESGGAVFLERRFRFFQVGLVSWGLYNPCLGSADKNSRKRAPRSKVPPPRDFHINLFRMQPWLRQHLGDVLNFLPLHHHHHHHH
# Experiments:
# Assay in all cases: SPR; KD relative to WT C2;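 note: biacore SPR at 37 °C, anti-C2 mAbs captured on an anti-human IgG chip, alanine or serine C2 surface mutants tested, KD from 1:1 fit compared with wild-type C2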
# human C2 S469A = target: T1, human C2 S469A
# human C2 N403A = target: T2, human C2 N403A
# human C2 A444S = target: T3, human C2 A444S
# human C2 N467A = target: T4, human C2 N467A
binder,measurement,setting,value
"RF16-214 (antibody, V domains shown) VH: EVQLLESGGGLVQPGGSLRLSCAASGFTFSWYQMMWVRQAPGKGLEWVSRIYPSGGGTAYADSVKGRFTISRDNSKNTLYLQMNSLRAEDTAVYYCARDAGYGDNWGQGTLVTVSS VL: QSALTQPPSVSVSPGQTASITCSGDKLGEKYASWYQQKAGQSPVMVIYQDRKRPSGIPERFSGSNSGNTATLTISGTQAMDEADYYCQAWDTRAVVFGGGTKLTVLG",Fold diff,human C2 S469A,3 fold
same,Fold diff,human C2 N403A,1 fold
same,Fold diff,human C2 A444S,1 fold
same,Fold diff,human C2 N467A,2 fold
